Test results published in publication PMC5415106, “Dpb11 may function with RPA and DNA to initiate DNA replication” (PLoS ONE, 2017).

T1: GST-Dpb11-wild-type (budding yeast, UniProt P47027 1-764)
T1 construct: Dpb11, budding yeast, full-length; also called Full-length Dpb11; wild-type Dpb11
T1 sequence (looked up): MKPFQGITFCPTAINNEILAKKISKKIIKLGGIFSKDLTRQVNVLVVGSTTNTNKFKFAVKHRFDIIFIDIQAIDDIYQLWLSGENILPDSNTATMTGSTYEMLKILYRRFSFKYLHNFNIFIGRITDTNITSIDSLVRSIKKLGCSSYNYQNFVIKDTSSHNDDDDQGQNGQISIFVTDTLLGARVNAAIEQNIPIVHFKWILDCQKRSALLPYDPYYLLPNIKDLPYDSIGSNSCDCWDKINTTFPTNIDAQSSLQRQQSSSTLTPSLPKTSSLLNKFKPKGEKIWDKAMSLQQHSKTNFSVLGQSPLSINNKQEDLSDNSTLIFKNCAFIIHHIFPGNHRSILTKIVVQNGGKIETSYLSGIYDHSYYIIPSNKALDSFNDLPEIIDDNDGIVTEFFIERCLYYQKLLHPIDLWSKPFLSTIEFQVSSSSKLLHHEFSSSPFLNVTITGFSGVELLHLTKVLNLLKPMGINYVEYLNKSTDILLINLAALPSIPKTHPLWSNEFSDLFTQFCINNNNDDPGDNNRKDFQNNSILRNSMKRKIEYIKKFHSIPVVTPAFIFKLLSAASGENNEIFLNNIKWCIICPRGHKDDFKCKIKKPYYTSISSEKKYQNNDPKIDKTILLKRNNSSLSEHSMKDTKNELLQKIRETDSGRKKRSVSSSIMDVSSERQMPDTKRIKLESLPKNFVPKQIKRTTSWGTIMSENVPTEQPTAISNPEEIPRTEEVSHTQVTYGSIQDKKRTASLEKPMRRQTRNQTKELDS

B1: Cdc45 (purified, radiolabelled) (natural protein, budding yeast, UniProt Q08032 1-650, looked up)
chain: MYYGISQFSEAYNKILRNSSSHSSCQLVIFVSCLNIDALCATKMLSLLFKKQLVQSQIVPIFGYSELRRHYSQLDDNINSLLLVGFGGVIDLEAFLEIDPQEYVIDTDEKSGEQSFRRDIYVLDAHRPWNLDNIFGSQIIQCFDDGTVDDTLGEQKEAYYKLLELDEESGDDELSGDENDNNGGDDEATDADEVTDEDEEDEDETISNKRGNSSIGPNDLSKRKQRKKQIHEYEGVLEEYYSQGTTVVNSISAQIYSLLSAIGETNLSNLWLNILGTTSLDIAYAQVYNRLYPLLQDEVKRLTPSSRNSVKTPDTLTLNIQPDYYLFLLRHSSLYDSFYYSNYVNAKLSLWNENGKKRLHKMFARMGIPLSTAQETWLYMDHSIKRELGIIFDKNLDRYGLQDIIRDGFVRTLGYRGSISASEFVEALTALLEVGNSTDKDSVKINNDNNDDTDGEEEEDNSAQKLTNLRKRWVSNFWLSWDALDDRKVELLNRGIQLAQDLQRAIFNTGVAILEKKLIKHLRIYRLCVLQDGPDLDLYRNPLTLLRLGNWLIECCAESEDKQLLPMVLASIDENTDTYLVAGLTPRYPRGLDTIHTKKPILNNFSMAFQQITAETDAKVRIDNFESSIIEIRREDLSPFLEKLTLSGLL
notes: Cdc45, budding yeast; The legend says only 'Similar to (A), except Cdc45 was used in place of Sld2T84D'; not shown: PKA tag (inferred from the radiolabelling method), N-terminal, kept
B2: PKA-Sld2T84D (natural protein, budding yeast, UniProt P34252 1-453, looked up)
chain: MYSFELDKLKIELKTWEHDFIDKNKREPTRDDIKSLRTVRQMYKQYSTLKKKQSLQRQKVDTQESVELPAHKKDHDEVVEIGPDPQVYGKAISIFDMNLSPIKPIYMTFTNNIDVNNDNSKTISNESSPRKTILLKSSPADRTLVAEPISSVKRQLNFQMLNASSTRTPTSSPCKNRNGKLVEIKKCSPTINPPLESGKPSGYYGPNSPLKLDEENIHLNISLNSSTKRRLQIAYPSLQKTPSKDQADISTSFSPSPLIRRPLTKSLIELAREHTEIVKEFGVLQEEDIEEEEEGEEGENGYDEKNHEDDFGLEDELIRPKVVKDIFQEDDDNDDSQAREDTFIRKRPKRRKVIRRLRDNDPETETAGFERDVHKELVKLKRRKVAEFLGSTSQISDTEFEHDPEASSGVVSSEQKPTAKRKGRKKYNLVSNNFRRLKLPKKNRFSNGRWGRR
modifications: 32P-phosphate on the artificial PKA site
notes: Sld2, budding yeast, with T84D; not shown: PKA site, N-terminal, kept
B3: GST-Dpb11-m1,2,3,5,ΔC (natural protein, budding yeast, UniProt P47027 1-615, looked up)
chain: MKPFQGITFCPTAINNEILAKKISKKIIKLGGIFSKDLTRQVNVLVVGSTTNTNKFKFAVKHRFDIIFIDIQAIDDIYQLWLSGENILPDSNTATMTGSTYEMLKILYRRFSFKYLHNFNIFIGRITDTNITSIDSLVRSIKKLGCSSYNYQNFVIKDTSSHNDDDDQGQNGQISIFVTDTLLGARVNAAIEQNIPIVHFKWILDCQKRSALLPYDPYYLLPNIKDLPYDSIGSNSCDCWDKINTTFPTNIDAQSSLQRQQSSSTLTPSLPKTSSLLNKFKPKGEKIWDKAMSLQQHSKTNFSVLGQSPLSINNKQEDLSDNSTLIFKNCAFIIHHIFPGNHRSILTKIVVQNGGKIETSYLSGIYDHSYYIIPSNKALDSFNDLPEIIDDNDGIVTEFFIERCLYYQKLLHPIDLWSKPFLSTIEFQVSSSSKLLHHEFSSSPFLNVTITGFSGVELLHLTEVLNLLEPMGINYVEYLNKSTDILLINLAALPSIPKTHPLWSNEFSDLFTQFCINNNNDDPGDNNRKDFQNNSILENSMKRKIEYIEKFHSIPVVTPAFIFKLLSAASGENNEIFLNNIKWCIICPRGHKDDFKCKIKKPYYTSISSEKKYQN
notes: Dpb11, budding yeast; ΔC = deletion of amino acids 616 to 764 (the C-terminus), so residues up to 615 remain; m1,2,3,5 = K463E, K469E, R538E, K549E in the BRCT4 motif; also called Dpb11-K463E, K469E, R538E,K549E, Δaa616-764; Dpb11-m1,2,3,4,ΔC (as printed once)

Columns and labels:
Experiment in all cases: pull-down; 10 pmol GST-tagged Dpb11 with 32P-labelled protein, no DNA; GST-binding buffer (40 mM Tris-HCl pH 7.5, 100 mM NaCl, 0.1 mM EDTA, 10% glycerol, 0.1% Triton X-100, 1 mM DTT, 0.1 mg/ml BSA), 25°C 1 h; glutathione Sepharose, two washes; SDS-PAGE and phosphorimaging
Conditions in all cases: both partners purified
[1] = target: T1, GST-Dpb11-wild-type
[2] = target: B3
[3] = target: T2, Mcm2-7 complex with a PKA tag at the N-terminus of Mcm2 (budding yeast, UniProt P29469 1-868; P24279 1-971; P30665 1-933; P29496 1-775; P53091 1-1017; P38132 …, 32P-phosphate on the PKA tag)
T2 construct: Mcm2, budding yeast; Mcm3, budding yeast; Mcm4, budding yeast; Mcm5, budding yeast; Mcm6, budding yeast; Mcm7, budding yeast (named only within 'Mcm2-7'); not shown: PKA tag, N-terminal, kept; copies: + + + + +

[4] = target: B1

Binder: B1
- binding result [1]: binds

Binder: B2
- binding result [1]: binds
- binding result [2]: binds

Binder: B3
- binding result [3]: binds
- binding result [4]: binds
